From IntAct's records for PubMed 22493499

B1: Signaling lymphocytic activation molecule (Mus musculus), Q9QUM4 (parent)
chain: MDPKGSLSWRILLFLSLAFELSYGTGGGVMDCPVILQKLGQDTWLPLTNEHQINKSVNKSVRILVTMATSPGSKSNKKIVSFDLSKGSYPDHLEDGYHFQSKNLSLKILGNRRESEGWYLVSVEENVSVQQFCKQLKLYEQVSPPEIKVLNKTQENENGTCSLLLACTVKKGDHVTYSWSDEAGTHLLSRANRSHLLHITLSNQHQDSIYNCTASNPVSSISRTFNLSSQACKQESSSESSPWMQYTLVPLGVVIIFILVFTAIIMMKRQGKSNHCQPPVEEKSLTIYAQVQKSGPQEKKLHDALTDQDPCTTIYVAATEPAPESVQEPNPTTVYASVTLPES

Variants of: B1
Settings: with becn1_human BECN1, Q14457
becn1_human BECN1, Q14457, sequence (Q14457 whole entry): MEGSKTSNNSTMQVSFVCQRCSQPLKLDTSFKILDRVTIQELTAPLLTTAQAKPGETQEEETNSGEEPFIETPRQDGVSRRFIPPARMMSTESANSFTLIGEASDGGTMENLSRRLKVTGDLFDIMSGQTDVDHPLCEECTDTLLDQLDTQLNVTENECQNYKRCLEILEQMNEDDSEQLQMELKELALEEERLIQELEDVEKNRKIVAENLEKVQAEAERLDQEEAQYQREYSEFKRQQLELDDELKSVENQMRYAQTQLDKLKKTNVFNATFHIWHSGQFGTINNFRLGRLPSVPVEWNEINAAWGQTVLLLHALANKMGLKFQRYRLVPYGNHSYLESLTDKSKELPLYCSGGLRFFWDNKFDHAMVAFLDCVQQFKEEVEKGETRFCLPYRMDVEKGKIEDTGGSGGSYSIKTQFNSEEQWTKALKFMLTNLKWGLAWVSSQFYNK

Variant	effect of a mutation on the interaction
Y288F;Y315F	decreasing interaction
Y315F;Y335F	decreasing interaction
Y288F;Y335F	decreasing interaction
